The supplement of paper PMC10724198
± gives the standard deviation of the averaged measurements.

How the values were obtained:
Saccharomyces cerevisiae [1] = assay: protein stability index of tFT-peptide fusion (C-terminal peptide) (PSI (0-1 scale)); higher = more stable (slower turnover)
Method: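 MPS profiling in S. cerevisiae of the tFT-X12 degron library: putative degron peptides plus stable controls, 12 aa, fused to the C-terminus of a sfGFP-mCherry timer. Cells are FACS-sorted into 8 mCherry/sfGFP bins and deep-sequenced. PSI runs from 0 (unstable) to 1 (stable). Backgrounds are wild type, das1Δ and doa10Δ at 30 °C, and wild type, das1Δ, cdc34-1 and cdc53-1 at 37 °C; 2-3 technical replicates each.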

Saccharomyces cerevisiae [2] = assay: as above; conditions: genetic background: wild type; temperature: 30 C
[3] = genetic background: cdc34-1, temperature: 37 C
[4] = genetic background: cdc53-1, temperature: 37 C
[5] = genetic background: das1 deletion, temperature: 30 C
[6] = genetic background: das1 deletion, temperature: 37 C
[7] = genetic background: doa10 deletion, temperature: 30 C
[8] = genetic background: wild type, temperature: 30 C
[9] = genetic background: wild type, temperature: 37 C
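Further: PSI is a weighted mean of sequencing reads over stability bins, variants kept only with over 10 reads, mCherry proximal and sfGFP distal, peptide attached via GGGS linker.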

Row | Sequence | protein stability index (Saccharomyces cerevisiae [1]; [3]) | protein stability index (Saccharomyces cerevisiae [1]; [4]) | protein stability index (Saccharomyces cerevisiae [1]; [5]) | protein stability index (Saccharomyces cerevisiae [1]; [6]) | protein stability index (Saccharomyces cerevisiae [1]; [7]) | protein stability index (Saccharomyces cerevisiae [1]; [8]) | protein stability index (Saccharomyces cerevisiae [1]; [9]) | protein stability index (Saccharomyces cerevisiae [2])
1 | SMFFLFFFFFFF | 0.396 ± 0.0071 | 0.356 ± 0.018 | 0.35 ± 0.042 | 0.444 ± 0.034 | 0.432 ± 0.028 | 0.328 ± 0.017 | 0.4177 ± 0.0027 | 0.36 ± 0.04
2 | PSPRRPPRSRFP | 0.651 ± 0.023 | 0.725 ± 0.028 | 0.653 ± 0.0072 | 0.7355 ± 0.0031 | 0.672 ± 0.03 | 0.654 ± 0.037 | 0.701 ± 0.017 | 0.732 ± 0.0084
3 | SYCFCCCVLFWG | 0.432 ± 0.019 | 0.517 ± 0.011 | 0.352 ± 0.028 | 0.559 ± 0.056 | 0.325 ± 0.011 | 0.357 ± 0.017 | 0.502 ± 0.018 | 0.407 ± 0.026
4 | PSFLAIRVCLLV | 0.0466 ± 0.00074 | 0.0881 ± 0.02 | 0.147 ± 0.034 | 0.211 ± 0.0098 | 0.0853 ± 0.02 | 0.0766 ± 0.01 | 0.0987 ± 0.036 | 0.133 ± 0.021
5 | ILCYVWLVFSGF | 0.225 ± 0.0092 | 0.311 ± 0.019 | 0.223 ± 0.029 | 0.382 ± 0.01 | 0.194 ± 0.0036 | 0.204 ± 0.032 | 0.369 ± 0.025 | 0.373 ± 0.022
6 | IGILVTAVPVFD | 0.507 ± 0.057 | 0.518 ± 0.0058 | 0.386 ± 0.042 | 0.5522 ± 0.0021 | 0.343 ± 0.013 | 0.382 ± 0.021 | 0.529 ± 0.011 | 0.451 ± 0.012
7 | LVFLYFHFCCGF | 0.4768 ± 0.0043 | 0.4909 ± 0.0032 | 0.394 ± 0.026 | 0.543 ± 0.024 | 0.399 ± 0.017 | 0.386 ± 0.013 | 0.5313 ± 0.0006 | 0.485 ± 0.017
8 | LCHILAIIRRGA | 0.691 ± 0.019 | 0.737 ± 0.032 | 0.596 ± 0.037 | 0.687 ± 0.013 | 0.429 ± 0.038 | 0.449 ± 0.05 | 0.624 ± 0.036 | 0.509 ± 0.05
9 | WVVVLFAYRGLR | 0.57 ± 0.026 | 0.519 ± 0.12 | 0.362 ± 0.031 | 0.57 ± 0.038 | 0.323 ± 0.02 | 0.379 ± 0.037 | 0.559 ± 0.041 | 0.458 ± 0.088
10 | SVSFFSLCTSSL | 0.511 ± 0.033 | 0.596 ± 0.006 | 0.506 ± 0.023 | 0.541 ± 0.011 | 0.521 ± 0.033 | 0.507 ± 0.02 | 0.511 ± 0.021 | 0.487 ± 0.012
11 | PSPYSLSPYFLV | 0.678 ± 0.032 | 0.74 ± 0.011 | 0.646 ± 0.013 | 0.7674 ± 0.0074 | 0.255 ± 0.013 | 0.302 ± 0.043 | 0.4902 ± 0.0013 | 0.425 ± 0.044
12 | FLACYSSFLFVS | 0.417 ± 0.034 | 0.576 ± 0.011 | 0.4917 ± 0.0018 | 0.587 ± 0.0092 | 0.0703 ± 0.024 | 0.0895 ± 0.022 | 0.136 ± 0.0035 | 0.149 ± 0.03
13 | EVFLARKRSMVV | 0.593 ± 0.043 | 0.677 ± 0.058 | 0.537 ± 0.036 | 0.67627 ± 0.00012 | 0.175 ± 0.019 | 0.214 ± 0.015 | 0.418 ± 0.0088 | 0.341 ± 0.03
14 | PPTHDSPVWSPS | 0.677 ± 0.06 | 0.721 ± 0.023 | 0.672 ± 0.029 | 0.7438 ± 0.0025 | 0.667 ± 0.017 | 0.687 ± 0.02 | 0.7217 ± 0.0029 | 0.743 ± 0.0086
15 | RLRCRVLQWVWG | 0.617 ± 0.0085 | 0.693 ± 0.0084 | 0.557 ± 0.038 | 0.6562 ± 0.0012 | 0.352 ± 0.0078 | 0.385 ± 0.027 | 0.571 ± 0.0062 | 0.471 ± 0.035
16 | LLLRSSRLRVLS | 0.543 ± 0.064 | 0.619 ± 0.03 | 0.607 ± 0.013 | 0.6521 ± 0.005 | 0.0852 ± 0.0037 | 0.0918 ± 0.02 | 0.149 ± 0.021 | 0.176 ± 0.065
17 | FFLSFICVMLCG | 0.192 ± 0.024 | 0.247 ± 0.024 | 0.173 ± 0.013 | 0.303 ± 0.0073 | 0.165 ± 0.0019 | 0.158 ± 0.011 | 0.2575 ± 0.0025 | 0.237 ± 0.027
18 | CLFSVLFPLFFR | 0.0858 ± 0.049 | 0.0347 ± 0.0022 | 0.137 ± 0.042 | 0.158 ± 0.016 | 0.6444 ± 0.0064 | 0.142 ± 0.0055 | 0.184 ± 0.073 | 0.214 ± 0.039
19 | CRHCFVLLYFDY | 0.304 ± 0.026 | 0.304 ± 0.013 | 0.321 ± 0.033 | 0.384 ± 0.0093 | 0.421 ± 0.017 | 0.318 ± 0.023 | 0.374 ± 0.0097 | 0.349 ± 0.00063
20 | LIARYTFLFCLC | 0.553 ± 0.042 | 0.611 ± 0.015 | 0.531 ± 0.015 | 0.628 ± 0.021 | 0.3501 ± 0.0008 | 0.354 ± 0.024 | 0.488 ± 0.025 | 0.444 ± 0.031

Row | Sequence | protein stability index (Saccharomyces cerevisiae [1]; [3]) | protein stability index (Saccharomyces cerevisiae [1]; [4]) | protein stability index (Saccharomyces cerevisiae [1]; [5]) | protein stability index (Saccharomyces cerevisiae [1]; [6]) | protein stability index (Saccharomyces cerevisiae [1]; [7]) | protein stability index (Saccharomyces cerevisiae [1]; [8]) | protein stability index (Saccharomyces cerevisiae [1]; [9]) | protein stability index (Saccharomyces cerevisiae [2])
21 | SFYAGLVVGGVG | 0.582 ± 0.038 | 0.616 ± 0.014 | 0.508 ± 0.026 | 0.6 ± 0.0064 | 0.525 ± 0.001 | 0.5 ± 0.018 | 0.5813 ± 0.0037 | 0.528 ± 0.053
22 | PTAGFFGLLVLV | 0.361 ± 0.0094 | 0.402 ± 0.035 | 0.294 ± 0.029 | 0.439 ± 0.005 | 0.279 ± 0.0034 | 0.286 ± 0.02 | 0.4087 ± 0.00047 | 0.397 ± 0.005
23 | VLLLLGGIVCVM | 0.236 ± 0.01 | 0.227 ± 0.018 | 0.222 ± 0.024 | 0.412 ± 0.0065 | 0.206 ± 0.012 | 0.229 ± 0.018 | 0.395 ± 0.019 | 0.327 ± 0.026
24 | TGVPNPSVAVMC | 0.639 ± 0.039 | 0.623 ± 0.023 | 0.457 ± 0.025 | 0.6489 ± 0.005 | 0.446 ± 0.019 | 0.475 ± 0.028 | 0.625 ± 0.0069 | 0.498 ± 0.098
25 | RVIRHLRRISNF | 0.647 ± 0.035 | 0.745 ± 0.0042 | 0.661 ± 0.0098 | 0.705 ± 0.046 | 0.142 ± 0.009 | 0.16 ± 0.045 | 0.307 ± 0.034 | 0.369 ± 0.021
26 | IKIQPKKRISLI | 0.658 ± 0.056 | 0.707 ± 0.058 | 0.632 ± 0.039 | 0.702 ± 0.017 | 0.155 ± 0.0043 | 0.174 ± 0.043 | 0.391 ± 0.031 | 0.299 ± 0.0067
27 | SLVLLVASVTGS | 0.507 ± 0.0053 | 0.546 ± 0.013 | 0.385 ± 0.024 | 0.5781 ± 0.0054 | 0.347 ± 0.01 | 0.384 ± 0.03 | 0.553 ± 0.017 | 0.464 ± 0.016
28 | DTHSRARAVLIA | 0.656 ± 0.0091 | 0.719 ± 0.015 | 0.585 ± 0.016 | 0.704 ± 0.01 | 0.2366 ± 0.002 | 0.301 ± 0.019 | 0.509 ± 0.04 | 0.389 ± 0.086
29 | PPPHPPPATFLS | 0.661 ± 0.029 | 0.692 ± 0.0097 | 0.676 ± 0.02 | 0.729 ± 0.022 | 0.401 ± 0.023 | 0.407 ± 0.021 | 0.596 ± 0.026 | 0.479 ± 0.011
30 | SVFVVVVLVFWY | 0.221 ± 0.042 | 0.3 ± 0.039 | 0.22 ± 0.029 | 0.33 ± 0.024 | 0.211 ± 0.018 | 0.22 ± 0.029 | 0.316 ± 0.016 | 0.269 ± 0.0066
31 | GGFHWCPSASRG | 0.712 ± 0.01 | 0.755 ± 0.016 | 0.647 ± 0.031 | 0.7536 ± 0.0026 | 0.678 ± 0.02 | 0.6726 ± 0.0059 | 0.749 ± 0.014 | 0.711 ± 0.017
32 | DFLSGRCIFFYV | 0.702 ± 0.029 | 0.797 ± 0.009 | 0.6451 ± 0.0058 | 0.762 ± 0.016 | 0.243 ± 0.014 | 0.277 ± 0.029 | 0.512 ± 0.011 | 0.445 ± 0.0099
33 | EWVWVVFSCVSW | 0.303 ± 0.027 | 0.429 ± 0.0099 | 0.307 ± 0.029 | 0.435 ± 0.012 | 0.2932 ± 0.0027 | 0.32 ± 0.012 | 0.432 ± 0.024 | 0.3472 ± 0.0015
34 | DRTRLFLLLIIA | 0.179 ± 0.0023 | 0.256 ± 0.038 | 0.202 ± 0.028 | 0.4013 ± 0.0035 | 0.139 ± 0.0068 | 0.165 ± 0.016 | 0.273 ± 0.019 | 0.246 ± 0.042
35 | VFLRCRSLSMRV | 0.475 ± 0.044 | 0.519 ± 0.014 | 0.397 ± 0.028 | 0.5352 ± 0.0026 | 0.409 ± 0.019 | 0.389 ± 0.013 | 0.529 ± 0.012 | 0.465 ± 0.03
36 | HRLQFKGYPICA | 0.243 ± 0.039 | 0.255 ± 0.067 | 0.235 ± 0.048 | 0.371 ± 0.015 | 0.18 ± 0.0058 | 0.223 ± 0.025 | 0.338 ± 0.0061 | 0.33 ± 0.0051
37 | GPVRSPPSPTPR | 0.674 ± 0.03 | 0.737 ± 0.0096 | 0.682 ± 0.015 | 0.73559 ± 0.00023 | 0.674 ± 0.024 | 0.66 ± 0.027 | 0.698 ± 0.014 | 0.727 ± 0.05
38 | GFIRVRHLRSLC | 0.55 ± 0.0029 | 0.658 ± 0.024 | 0.645 ± 0.019 | 0.7128 ± 0.0023 | 0.121 ± 0.019 | 0.138 ± 0.015 | 0.194 ± 0.026 | 0.234 ± 0.026
39 | CYVFLCGSFVFV | 0.446 ± 0.011 | 0.499 ± 0.0084 | 0.36 ± 0.036 | 0.551 ± 0.014 | 0.317 ± 0.0068 | 0.351 ± 0.023 | 0.515 ± 0.012 | 0.471 ± 0.037
